Target: DBD-TSSK2 (myc tagged): human TSSK2 ORF fused with the Gal4 DNA-binding domain (pGBK-TSSK2) (human)
Test: cell-based or functional assay

## TSKS deletion mutant lacking the carboxyl terminus and second coiled-coil region, fused with the Gal4 activation domain (pGAD) (from UniProt P04386 768-881)
  alpha-galactosidase activity as percentage of full length TSKS (% reduction against full length TSKS): 75

## TSKS deletion mutant lacking the first 48 amino acids, fused with the Gal4 activation domain (pGAD) (from UniProt Q9UJT2 49-592)
  alpha-galactosidase activity as percentage of full length TSKS (% of full length TSKS): 5
